In US20230227838A1, “ENHANCED CELL SURVIVAL AGAINST BIOTIC AND ABIOTIC STRESSES THROUGH SALICYLICK ACID-INDUCED NPR1 CONDENSATES” (priority 2020, published 2023):

What was measured:
[1] = system: cytoplasmic condensates (SINCs); experiment: Confocal imaging of localization and condensate (body) formation of GFP-fused NPR proteins and variants; assay type: cell-based, Nicotiana benthamiana; settings: for SA-induced cytoplasmic body/condensate (SINC) formation: 5 mM SA for 2 hr
Method: (§1) Plant transformation: For plant transformations, the Agrobacterium tumefaciens strain GV3101 was transformed with plant binary vectors carrying the indicated transgenes. For stable expression in Arabidopsis, a floral dipping method was used. For transient expression in N benthamiana, the Agrobacterium carrying the indicated construct was cultured overnight at 28° C. in Luria-Bertani (LB) broth medium supplemented with appropriate antibiotics: spectinomycin (100 μg/ml), kanamycin (50 μg/ml), gentamycin (50 μg/ml), and rifampicin (25 μg/ml). The obtained culture was re-inoculated at 1:10 into fresh growth media with antibiotics and grown for another 4 hr. Cells were then spun down at 1,600 g for 10 min, and inoculum was prepared by resuspending cells to OD600 nm=1 in double distilled water (DDW) containing 200 μM acetosyringone (Sigma). Unless otherwise stated, for co-IP, co-localization, and BiFC assays in N. benthamiana, the proteins were co-expressed at 1:1 mixture of the relevant Agrobacteria inoculums. In all BiFC assays, the pair of YN/YC fusions was co-expressed together with free mCherry to mark the cytoplasm and nucleus, mCherry-NLS to mark the nucleus only, or mCherry-fused test proteins for co-localization analysis. The inoculum was pressure infiltrated into N. benthamiana leaves at the abaxial side using 1 ml syringe without the needle. Due to low overall levels of NPR1-GFP in transgenic plants, a transient expression assay in Arabidopsis seedlings was used to monitor NPR1-GFP subcellular localization after SA treatment (FIG. 2B). To limit the imaging time in this transient assay (2 hours), a higher baseline SA concentration had to be used. Seeds of WT (Col-0) Arabidopsis were germinated on solid half-strength Murashige and Skoog (1/2 MS) medium and grown for 4 days. Agrobacterium carrying the indicated constructs was grown overnight in LB medium supplemented with appropriate antibiotics. The obtained culture was re-inoculated at 1:10 into virulence induction medium [50.78 mM MES, 0.5% Glucose, 1.734 mM NaH2PO4, 5% of 20X-AB mix (373.9 mM NH4C1, 24.34 mM MgSO4, 40.23 mM KCl, 1.36 mM CaCl2 and 0.18 mM FeSO4·7H2O), 200 μM acetosyringone] supplemented with 25 μg/ml rifampicin and grown for another 24 hr at 28° C. to OD600=0.8 (inoculum). Seedlings were vacuum-infiltrated with the inoculum, and at 48 hpi (hours post inoculation), treatments were performed by submerging the transformed seedlings in water or SA solution at indicated concentrations for 2 hr. Entire cotyledons were sampled for microscopy.
Confocal laser scanning microscopy. Unless otherwise indicated, all imaging data and micrographs for single protein imaging, co-localizations, BiFC and time-lapse were obtained from the transient expression in N. benthamiana using the relevant Agrobacteria strains. All imaging was done with confocal laser scanning fluorescence microscopy using Zeiss 880 airyscan inverted confocal microscope with a 40×/1.2 water correction objective. GFP (eGFP) was excited with a 488 nm argon laser and emission was collected with a 505-530 nm band pass filter. YFP was excited with an argon laser using a 514 nm beam splitter, and emission was detected with a 520-555 nm band pass filter. mCherry was excited with a 561 nm diode laser, and emission was detected with a 575-615 nm band pass filter. When eGFP/YFP were imaged together with mCherry, a spectral GASP detector was used to collect emission from eGFP/YFP. Propidium iodide (PI) was excited with 488 nm argon laser and emission was detected with a 590-620 nm band pass filter. Time-lapse imaging was carried out on live leaf tissue samples from N. benthamiana plants transiently expressing the protein of interest. Image acquisition was done in 5 min intervals for the duration of 2 hr by scanning 30 consecutive focal planes along the Z-axis covering the entire thickness of an epidermal cell. Z-projection was done to each time frame stack before composing a final time-lapse file. […]

[2] = system: CUL3; experiment: Co-IP of Myc-CUL3 with HA-fused NPR1 or variants; assay type: binding, Arabidopsis thaliana
Method: as §1
Protein analysis and IP. Recombinant protein analysis was performed using transient expression in N. benthamiana, or stable over-expression in transgenic Arabidopsis, or expression in E. coli. Total protein extraction from plants was performed by homogenizing leaf tissue in the plant extraction buffer [50 mM Tris-HCl (pH 7.5), 150 mM NaCl, 5 mM EDTA, 0.2% Triton X-100, 0.2% Nonidet P-40] supplemented with 1 mM PMSF, 100 μM MG132, and EDTA-free protease inhibitor cocktail (Roche). For ubiquitinated protein analysis in plants, 100 μM of DUB (deubiquitinase) inhibitor (LifeSensors) and 10 mM NEM were added. Next, the lysates were cleared by centrifugation at 14,000 rpm for 15 min followed by filtering through a 0.2 μm filter. […] Pull-downs or IP experiments were done on total protein extracts by incubating protein samples in the lysis buffer overnight with indicated affinity tag or antibody conjugated to agarose or magnetic beads: GFP-trap agarose beads (Chromotek) for GFP fusions; RFP-trap agarose beads (Chromotek) for mCherry fusions; anti-HA magnetic beads (ThermoFisher) for HA tag fusions; anti-DYKDDDDK coupled magnetic agarose (ThermoFisher) for FLAG tag fusions; and glutathione magnetic agarose (ThermoFisher) for GST fusions. Unless otherwise indicated, after pull-down/IP, beads were washed 3 times and proteins were eluted by boiling in the 2×SDS sample buffer. […]

B1: NPR6: development-associated NPR1 paralog AtNPR6 (AT3G57130) (protein, UniProt Q9M1I7 1-467, looked up)
Regulatory protein NPR6: MSNTFEESLKSMSLDYLNLLINGQAFSDVTFSVEGRLVHAHRCILAARSLFFRKFFCESDPSQPGAEPANQTGSGARAAAVGGVIPVNSVGYEVFLLLLQFLYSGQVSIVPHKHEPRSNCGDRGCWHTHCTAAVDLSLDILAAARYFGVEQLALLTQKHLTSMVEKASIEDVMKVLIASRKQDMHQLWTTCSYLIAKSGLPQEILAKHLPIELVAKIEELRLKSSMPLRSLMPHHHDLTSTLDLEDQKIRRMRRALDSSDVELVKLMVMGEGLNLDESLALIYAVENCSREVVKALLELGAADVNYPAGPTGKTALHIAAEMVSPDMVAVLLDHHADPNVQTVDGITPLDILRTLTSDFLFKGAIPGLTHIEPNKLRLCLELVQSAALVISREEGNNNSNDNNTMIYPRMKDEHTSGSSLDSRLVYLNLGATNRDIGDDNSNQREGMNLHHHHHDPSTMYHHHHHHF
For B1, which “condensate formation in the absence of SA (constitutive)” value ([1]; no SA treatment / mock) is on record?
The value was “constitutive bodies”.

B2: NPR3: Arabidopsis NPR1 paralog AtNPR3 (AT5G45110) (protein, UniProt Q8L746 1-586, looked up)
Regulatory protein NPR3: MATLTEPSSSLSFTSSHFSYGSIGSNHFSSSSASNPEVVSLTKLSSNLEQLLSNSDCDYSDAEIIVDGVPVGVHRCILAARSKFFQDLFKKEKKISKTEKPKYQLREMLPYGAVAHEAFLYFLSYIYTGRLKPFPLEVSTCVDPVCSHDCCRPAIDFVVQLMYASSVLQVPELVSSFQRRLCNFVEKTLVENVLPILMVAFNCKLTQLLDQCIERVARSDLYRFCIEKEVPPEVAEKIKQLRLISPQDEETSPKISEKLLERIGKILKALDSDDVELVKLLLTESDITLDQANGLHYSVVYSDPKVVAEILALDMGDVNYRNSRGYTVLHFAAMRREPSIIISLIDKGANASEFTSDGRSAVNILRRLTNPKDYHTKTAKGRESSKARLCIDILEREIRKNPMVLDTPMCSISMPEDLQMRLLYLEKRVGLAQLFFPTEAKVAMDIGNVEGTSEFTGLSPPSSGLTGNLSQVDLNETPHMQTQRLLTRMVALMKTVETGRRFFPYGSEVLDKYMAEYIDDDILDDFHFEKGSTHERRLKRMRYRELKDDVQKAYSKDKESKIARSCLSASSSPSSSSIRDDLHNTT
With B2 as the molecule, how does the “SA-induced cytoplasmic body/condensate (SINC) formation” value (shortened to “SA-induced cytoplasmic body/condensate”) [1] read?
The value was “fail to form cytoplasmic condensates”.

B3: BTB: BTB domain of NPR1 corresponding to amino acids 65-144 of SEQ ID NO: 1 (protein, listed as Arabidopsis thaliana)
chain: SDAKLVLSDGREVSFHRCVLSARSSFFKSALAAAKKEKDSNNTAAVKLELKEIAKDYEVGFDSVVTVLAYVYSSRVRPPP
With B3 as the molecule, how does the “CUL3 pull-down in co-IP in the absence of SA” value ([2]; absence of SA) read?
Its value is “sufficient to strongly pulldown CUL3 even in the absence of SA”.

B4: NPR4: Arabidopsis NPR1 paralog AtNPR4 (AT4G19660) (protein, UniProt Q5ICL9 1-574, looked up)
Regulatory protein NPR4: MAATAIEPSSSISFTSSHLSNPSPVVTTYHSAANLEELSSNLEQLLTNPDCDYTDAEIIIEEEANPVSVHRCVLAARSKFFLDLFKKDKDSSEKKPKYQMKDLLPYGNVGREAFLHFLSYIYTGRLKPFPIEVSTCVDSVCAHDSCKPAIDFAVELMYASFVFQIPDLVSSFQRKLRNYVEKSLVENVLPILLVAFHCDLTQLLDQCIERVARSDLDRFCIEKELPLEVLEKIKQLRVKSVNIPEVEDKSIERTGKVLKALDSDDVELVKLLLTESDITLDQANGLHYAVAYSDPKVVTQVLDLDMADVNFRNSRGYTVLHIAAMRREPTIIIPLIQKGANASDFTFDGRSAVNICRRLTRPKDYHTKTSRKEPSKYRLCIDILEREIRRNPLVSGDTPTCSHSMPEDLQMRLLYLEKRVGLAQLFFPAEANVAMDVANVEGTSECTGLLTPPPSNDTTENLGKVDLNETPYVQTKRMLTRMKALMKTVETGRRYFPSCYEVLDKYMDQYMDEEIPDMSYPEKGTVKERRQKRMRYNELKNDVKKAYSKDKVARSCLSSSSPASSLREALENPT
B4 was tested. Which “SA-induced cytoplasmic body/condensate” value [1] did it give?
The value was “fail to form cytoplasmic condensates”.

B5: CTD: C-terminal domain (CTD) of NPR1 (protein)
chain: ALMIAKQATMAVECNNIPEQCKHSLKGRLCVEILEQEDKREQIPRDVPPSFAVAADELKMTLLDLENRVALAQRLFPTEAQAAMEIAEMKGTCEFIVTSLEPDRLTGTKRTSPGVKIAPFRILEEHQSRLKALSKTVELGKRFFPRCSAVLDQIMNCEDLTQLACGEDDTAEKRLQKKQRYMEIQETLKKAFSEDNLELGNSSLTDSTSSTSKSTGGKRSNRKLSHRRR
modifications: left off: large carriers
notes: C-terminal domain (CTD) of NPR1
B5 was tested. Which “competition with CUL3 for interaction with BTB” value ([2]; Myc-CUL3, BTB-HA and CTD-GFP co-expressed) did it give?
The value was “outcompeted CUL3 for interaction with BTB”.

B6: nls: NPR1 point mutant with enhanced cytoplasmic localization, blocking nuclear function (protein)
chain: MDTTIDGFADSYEISSTSFVATDNTDSSIVYLAAEQVLTGPDVSALQLLSNSFESVFDSPDDFYSDAKLVLSDGREVSFHRCVLSARSSFFKSALAAAKKEKDSNNTAAVKLELKEIAKDYEVGFDSVVTVLAYVYSSRVRPPPKGVSECADENCCHVACRPAVDFMLEVLYLAFIFKIPELITLYQRHLLDVVDKVVIEDTLVILKLANICGKACMKLLDRCKEIIVKSNVDMVSLEKSLPEELVKEIIDRRKELGLEVPKVKKHVSNVHKALDSDDIELVKLLLKEDHTNLDDACALHFAVAYCNVKTATDLLKLDLADVNHRNPRGYTVLHVAAMRKEPQLILSLLEKGASASEATLEGRTALMIAKQATMAVECNNIPEQCKHSLKGRLCVEILEQEDKREQIPRDVPPSFAVAADELKMTLLDLENRVALAQRLFPTEAQAAMEIAEMKGTCEFIVTSLEPDRLTGTKRTSPGVKIAPFRILEEHQSRLKALSKTVELGKRFFPRCSAVLDQIMNCEDLTQLACGEDDTAEKRLQQQQGYMEIQETLQQAFSEDNLELGNSSLTDSTSSTSKSTGGKRSNRKLSHRRR
modifications: left off: small tags and cut ends
B6 was tested. Which “CUL3 pull-down signal in co-IP” value ([2]; 1 mM SA for 5 hr) did it give?
Its value is “significantly stronger CUL3 pull-down signals”.

B7: NPR2: Arabidopsis NPR1 paralog AtNPR2 (AT4G26120) (protein, UniProt Q9SZI3 1-600, looked up)
Regulatory protein NPR2: MATTTTTTTARFSDSYEFSNTSGNSFFAAESSLDYPTEFLTPPEVSALKLLSNCLESVFDSPETFYSDAKLVLAGGREVSFHRCILSARIPVFKSALATVKEQKSSTTVKLQLKEIARDYEVGFDSVVAVLAYVYSGRVRSPPKGASACVDDDCCHVACRSKVDFMVEVLYLSFVFQIQELVTLYERQFLEIVDKVVVEDILVIFKLDTLCGTTYKKLLDRCIEIIVKSDIELVSLEKSLPQHIFKQIIDIREALCLEPPKLERHVKNIYKALDSDDVELVKMLLLEGHTNLDEAYALHFAIAHCAVKTAYDLLELELADVNLRNPRGYTVLHVAAMRKEPKLIISLLMKGANILDTTLDGRTALVIVKRLTKADDYKTSTEDGTPSLKGGLCIEVLEHEQKLEYLSPIEASLSLPVTPEELRMRLLYYENRVALARLLFPVETETVQGIAKLEETCEFTASSLEPDHHIGEKRTSLDLNMAPFQIHEKHLSRLRALCKTVELGKRYFKRCSLDHFMDTEDLNHLASVEEDTPEKRLQKKQRYMELQETLMKTFSEDKEECGKSSTPKPTSAVRSNRKLSHRRLKVDKRDFLKRPYGNGD
How did the “SA-induced cytoplasmic body/condensate” value [1] turn out when B7 was run?
The value was “fail to form cytoplasmic condensates”.
